Source: patent US20190078065A1, “MODIFIED DNA POLYMERASES” (SIGMA-ALDRICH CO. LLC, priority 2017, published 2019)

B1: Hs PolM-Lp1: Homo sapiens PolM, Loop 1 domain swap (protein)
chain: MLPKRRRARVGSPSGDAASSTPPSTRFPGVAIYLVEPRMGRSRRAFLTGLARSKGFRVLDACSSEATHVVMEETSAEEAVSWQERRMAAAPPGCTPPALLDISWLTESLGAGQPVPVECRHRLEVAGPRKGPLSPAWMPAYACQRPTPLTHHNTGLSEALEILAEAAGFEGSEGRLLTFCRAASVLKALPSPVTTLSQLQGLPHFGEHSSRVVQELLEHGVCEEVERVRRSERYQTMKLFTQIFGVGVKTADRWYREGLRTLDDLREQPQKLTQQQKAGLQHHQDLSTPVLRSDVDALQQVVEEAVGQALPGATVTLTGGFRRGKLQGHDVDFLITHPKEGQEAGLLPRVMCRLQDQGLILYHQHQESTFEKLRLPSRKVDALDHFERSFCIFRLPQPPGAAVGGSTRPCPSWKAVRVDLVVAPVSQFPFALLGWTGSKLFQRELRRFSRKEKGLWLNSHGLFDPEQKTFFQAASEEDIFRHLGLEYLPPEQRNA
B2: Hs tPolM-Lp1: Homo sapiens PolM, Loop 1 domain swap and N-terminal truncation (Δ 1-108) (protein)
chain: MLGAGQPVPVECRHRLEVAGPRKGPLSPAWMPAYACQRPTPLTHHNTGLSEALEILAEAAGFEGSEGRLLTFCRAASVLKALPSPVTTLSQLQGLPHFGEHSSRVVQELLEHGVCEEVERVRRSERYQTMKLFTQIFGVGVKTADRWYREGLRTLDDLREQPQKLTQQQKAGLQHHQDLSTPVLRSDVDALQQVVEEAVGQALPGATVTLTGGFRRGKLQGHDVDFLITHPKEGQEAGLLPRVMCRLQDQGLILYHQHQESTFEKLRLPSRKVDALDHFERSFCIFRLPQPPGAAVGGSTRPCPSWKAVRVDLVVAPVSQFPFALLGWTGSKLFQRELRRFSRKEKGLWLNSHGLFDPEQKTFFQAASEEDIFRHLGLEYLPPEQRNA

Columns and labels:
Format in all cases: biochemical
[1] = tested on: 3′-O-carbamate or ester blocked nucleotides; test: incorporation of 3′-O-blocked nucleotides, mutant vs. wild type polymerase, quantified by densitometry; settings: for rates of incorporation of 3′-O-carbamate or ester blocked nucleotides as compared to wild type (WT) Hs PolM: densitometry
Text: The incorporation of 3′-O-carbamate or ester blocked nucleotides by the PolM-loop1 chimera, Hs PolM-Lp1, or the truncated PolM-loop1 chimera, Hs tPolM-Lp1 was compared to that of wild type Hs PolM. The amount of incorporation was quantified by densitometry.

[2] = tested on: 3′-O-carbamate or ester blocked nucleotides; test: template-free DNA synthesis reaction: incorporation of 3′-O-blocked nucleotides; settings: template-independent, dNTP1, 2, 3, 5, 6 of Table 2; FIG. 5
Text: The ability of the PolM-loop1 chimera, Hs PolM-Lp1, to incorporate 3′-O-blocked nucleotides was examined in a template-free DNA synthesis reaction.

[3] = tested on: 3′-O-blocked adenosine 5′-triphosphates; test: incorporation of 3′-O-blocked adenosine, comparison with Bt TdT

Molecule	rates of incorporation of 3′-O-carbamate or ester blocked nucleotides as compared to wild type (WT) Hs PolM [1]	incorporation of 3′-O-carbamate or ester blocked nucleotides [2]	Fold increase Hs tPolM-Lp1 vs. Hs PolM-Lp1 ([1]; Blocking group 1) [Fold]	Fold increase Hs tPolM-Lp1 vs. Hs PolM-Lp1 ([1]; Blocking group 2) [Fold]	Fold increase Hs tPolM-Lp1 vs. Hs PolM-Lp1 ([1]; Blocking group 3) [Fold]	Fold increase Hs tPolM-Lp1 vs. Hs PolM-Lp1 ([1]; Blocking group 5) [Fold]	Fold increase Hs tPolM-Lp1 vs. Hs PolM-Lp1 ([1]; Blocking group 6 (artificial base-5SICS)) [Fold]	Fold increase Hs tPolM-Lp1 vs. Hs PolM-Lp1 ([1]; Blocking group 6 (standard base)) [Fold]	increase in incorporation relative to Bt TdT [3] [fold]
B1	significantly increased	successfully incorporated							
B2	significantly increased		2.2	2.1	2.0	1.3	3.0	2.0	2.7
